The data set is described as follows: label from the status in PepcDB records.
As for “MQREKVDVLVIGAGPAGTVAASLVNKSGFKVKIVEKQKFPRFVIGESLLPRCMEHLDEAGFLDAVKAQGFQQKFGAKFVRGKEIADFNFSDQFSNGWNWTWQVPRGNFDKTLADEAARQGVDVEYEVGVTDIKFFGTDSVTTIEDINGNKREIEARFIIDASGYGRVIPRMFGLDKPSGFESRRTLFTHIKDVKRPVAAEMEGNRITAVVHKPKVWIWVIPFSNGNTSVGFVGEPSYFDEYTGTPEERMRAMIANEGHIAERFKSEEFLFEPRTIEGYAISASKLYGDGFVLTGNATEFLDPIFSSGATFAMESGSKGGKLAVQFLKGEEVNWEKDFVEHMMQGIDTFRSFVTGWYDGTLHAVFFAKNPDPDHKRMICSVLAGYVWDKNNPFVKKHNTILKTLAKVIQMGEEALEHHHHHH”, the protein production result is given as “not failed”. In the case of “MQRNLSHIISQATSAPLLLEPAYARVFFCALGRESGINSLHIPGNNESLDQSDMALVTGDFMATGKPQARFYQVVNGIAVLPVTGTLVHKLGGMRPFSGMTGYDGVTARLQQAVSDPEVKGILLDIDSPGGQAAGAFDCADMIYRMREQKPVWALANETACSAAMLLAAACSHRLVTQTSRMGSIGVVMAHTSYAEKLKQEGIDITLIYSGAHKADLTPSQKLPESVYADYQQRMDEARKMFAEKVARYTGLSVDAVMATEAAVYDGQAIITTGLADGMVNAADAIGVMAEAINSNKTGGTMPELSAADAVTQENQRVMGILGCPEARGHEALAQMLAGQPGMSVAQAKSILAAAAPADTTSTADRILALEEAGGRETLAQTLAAMPEMTVEQARTILAASPIAAATSLHDAVMALDEAKGREELAEKLAVMPGMTTDQARDLLAAAPDKSGNAGLSMNNAFDAFMQSHSPGPISGGKGHSNDTETTLLMSIPGTSAT” it was “failed”; in that of “MQRTGELPAEHVPVILESSGAGDFHLIDSGNGLKLEQYGDYRVVRPEAQALWRPLVPDRVWQNADAIFTGDTDEDGMGRWRFPKEALGETWPLSLLGVEFLGRFTAFRHVGVFPEQIVHWEWLKNAVETADRPLKVLNLFGYTGVASLVAAAAGAEVTHVDASKKAIGWAKENQVLAGLEQAPIRWICEDAMKFIQREERRGSTYDIILTDPPKFGRGTHGEVWQLFDHLPLMLDICREILSPKALGLVLTAYSIRASFYSMHELMRETMRGAGGVVASGELVIREAGLDGKTPGRVLSTSLFSRWEPK”, “not failed”.

Turning to “MQRTLGEIMKIYFATGNPNKIKEANIILKDLKDVEIEQIKISYPEIQGTLEEVAEFGAKWVYNILKKPVIVEDSGFFVEALNGFPGTYSKFVQETIGNEGILKLLEGKDNRNAYFKTVIGYCDENGVRLFKGIVKGRVSEEIRSKGYGFAYDSIFIPEEEERTFAEMTTEEKSQISHRKKAFEEFKKFLLDRI”, the protein production result was “not failed”. In the case of “MQRYDAVISGAGPAGCSAALSLAQKGRRVLLIDKARFPREKICGDGVTAASTELLEEMGVLELLRQRPGSLTEFRGATFVSPGGTVVQGRILRNGHLSGSSYVIPRMVLDDSLVSRVKEHSSITFLDKTTVTGLVMDGDRARGVATSAGEFCGRIIIAADGAYSPIAKQLDLWNRDKRQQGFAMRAWFSGVEGLGDSIELCYDKAMLPGYGWIFPAGEQRANVGVFLLPRFADQRSTKRLFKSFVKENAFAAARLKNAVMEPGSLKSWPLPFGSFAGRRGRGNVLLAGDAGSFIDPLTGEGIYYALKTGRYAAEAVANALERNDESAALTRYEQLWRGEFSGRVYFPGYAFQHFMNNSWFVDTFMRYTAKKQHRADLLADVVAHNRKRRELFKLLNPFYLEHHHHHH” it was “failed”; in that of “MQSINFRTARGNLSEVLNNVEAGEEVEITRRGREPAVIVSKATFEAYKKAALDAEFASLFDTLDSTNKELVNRLEHHHHHH”, “not failed”; in that of “MQSNLLAVLFALASALTIAWGTVVRHRIALRTPKDGSLRSSPLLNALMTPMWWAGMSTAMLAYFLQTVALGFGTLLVVQPVLVLSLMFTLPLSARFNGYRLRRTEIFWATLLTVAVGIMIVLGRPLPGNPHPPLDRWIPVLLVGVAVMGGMWLLAEYVLKKDKALILGLVTGALFGYVAVMSKAAVDLFVHQGITGLILNWEGYGLILTALLGTIVQQYSFNAGELQKSLPAMTIAEPIVAFSLGYLVLGEKFQVVDWEWIAMGIALLVMIVSTIALSRTSTMPAGSKR”, “failed”. Next, “MQSPEKIDPTWEDSVIDSFISFVRSYDGDFTCIYKLADTVSDEYSLQKIIDFLSSTPQGKQAFQKRPQLGVVDLPKLHQLPTDTLGYVYADQMLQNNLQPLQSHEIDNDYQFFKTHITETHDLWHIVTGADTSILGEIQLEAFYVSQLYASRFWLALLAKNLLKAVIYDIELSTPYMDAISTGWVMAKQAKPLFGLEWNLLWEKPLADVRTSLNIILPVNLEHHHHHH”: “not failed”.
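Also: failed if final PepcDB status was selected cloned or expressed and not failed if soluble or beyond.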
